Measured values as given in patent US8383602B2, “Use of TRIM72 as a target for muscle and heart enhancer” (Korea University Industrial & Academic Collaborative …, priority 2007, dated 2013).
Residues, ends and D or L forms follow the SMILES beside them. *: point of attachment. Cbz = O=C(OCc1ccccc1)*

Tests used:
Type in all cases: cell-based
TRIM72 promoter [1] = assay: TRIM72 promoter-luciferase activity during muscle differentiation, pharmacological inhibitors; settings: FIG. 14A
Experimental: (§1) A. CEMI promoter-luciferase fused gene having E2 and E3 was expressed in C2C12 myoblasts for 24 hours and muscle differentiation into myotubes was induced for 24 hours. While inducing muscle differentiation, PI3K inhibitor (LY294002, 10 μM), mTOR inhibitor (rapamycin, 100 nM), GSK3β inhibitor (LiCl, 5 mM) and MAPK inhibitor (PD98059, 10 μM) were treated and luciferase activity was measured. B. CEMI promoter-luciferase fused gene having E2 and E3 and MyoD gene were expressed in C2C12 myoblasts for 24 hours. After treating with various agents for 24 hours, luciferase activity was measured. C. […] After inducing muscle differentiation into myotubes for 24 hours, luciferase activity was measured. […] After inducing differentiation for 24 hours, luciferase activity was measured.
(§2) IRS-1 constructs (full-length, 1-3729; PH-PTB domain, 1-900; Mid-region, 880-2608; Rear-region, 2581-3729) and TRIM72 cDNA constructs (full-length, 1-1431; ΔRING, 181-1431; coiled-coil, 367-1020; CCSPRY, 367-1431; SPRY, 687-1431; Δcoiled-coil) were generated by PCR using the primers described in Table 1 and cloned into pCMV-Tag2B vector and pCMV-3Tag4a vector (Stratagene), respectively. […] Luciferase activity in cell lysates was measured by using the luciferase assay system (Promega) in a Luminoskan Ascent (Thermo Labsystem). […]

TRIM72 promoter [2] = assay: MyoD-dependent TRIM72 promoter-luciferase activity in myoblasts, pharmacological inhibitors; settings: agents treated 24 hours, FIG. 14B
Experimental: as §1, §2

IRS-1 [3] = assay: IRS-1 expression in 293 cells co-transfected with TRIM72; settings: IRS-1 and TRIM72 transfected, FIG. 11A
Experimental: (§3) A. IRS-1 (6 μg) and TRIM72 (2 μg) were transfected into HEK 293 cells for 30 hours and expression of IRS-1 and TRIM72 was investigated after treating with the proteosomal degradation inhibitor MG132 for 10 hours. B. IRS-1 (3 μg) and TRIM72 at various concentrations (0, 0.5, 1, 2 μg) were transfected into 293 cells for 30 hours and expression of IRS-1 was investigated. C. HA-TRIM72 (or HA-TRIM72 C14A), Flag-IRS-1 and His-ubiquitin were transfected into 293 cells for 30 hours and MG132 was treated for 10 hours. Ubiquitination of IRS-1 was identified by immunoblotting using His after immunoprecipitation with Flag antibody. Red brace denotes ubiquitination of IRS-1.
as §2
(§4) Western blotting and immunostaining were performed as described in Kim, K. B. et al. Proteomics 6, 2444-53 (2006). […] The immunoprecipitates were analyzed by Western blotting.

IGFR = assay: IGF-I-induced tyrosine phosphorylation of IGFR (immunoprecipitation); settings: FIG. 8
Excerpt: (§5) An adenoviral vector with TRIM72 was constructed using ViraPower™ Adenoviral Expression System (Invitrogen) under control of the cytomegalovirus (CMV). Full-length-TRIM72 ORF (open reading frame) was cloned into an entry vector pENTR (Invitrogen) using the restriction enzyme sites (SalI and NotI) and homologously recombined into a destination vector pAd/CMV/V5-DEST (Invitrogen) which has the adenoviral genome and CMV promotor. The cloned TRIM72-adenoviral genome was linearlized by cutting with PacI restriction enzyme and transfected into 293A cells using a transfection agent (GenePorter II). After 10-15 days of the transfection, the supernatant comprising adenovirus was re-transfected into 293A cells to obtain the amplified adenovirus. The obtained adenovirus supernatant was purified into adenovirus particles using cessium chlororide. C2C12 myoblasts grown in 6 well plates were infected by adenovirus with the dosage of 4×10^10 VP/ml.
(§6) SiRNA oligomer targeting TRIM72 was designed from Dharmacon. Target sequence of TRIM72 is 5′-[…]-3′. The cell cultures were transfected with control RNAi and TRIM72 specific siRNA using transfection reagent (TransIT®-TKO, Mirus), which was prepared according manufacturer's instruction. […]
as §4

AKT = assay: IGF-1-induced AKT phosphorylation after TRIM72 overexpression or knockdown; settings: myoblasts (overexpression) / myotubes (knockdown), FIG. 7A
Excerpt: as §5, §6, §4

M-Cadherin = M-Cadherin expression after TRIM72 overexpression or Si-RNA; settings: FIGS. 12C-12E
Excerpt: as §5, §6, §4

IRS-1 [4] = assay: IGF-I-induced tyrosine phosphorylation of IRS-1 (immunoprecipitation); settings: IGF-I stimulation, FIG. 8
Excerpt: as §5, §6, §4

IRS-1 with PI3K = assay: Molecular association of IRS-1 with PI3K after IGF-I stimulation (immunoprecipitation); settings: FIG. 8
Excerpt: as §5, §6, §4

C2C12 myoblasts [5] = assay: Muscle differentiation (myogenesis) after TRIM72 overexpression by adenoviral vector or TRIM72 interference by SiRNA
Experimental: (§7) C2C12 cells were purchased from ATCC and grown in Dulbecco's modified Eagle's medium (DMEM) supplemented with 2% penicillin/streptomycin (WelGene) and 10% fetal bovine serum (WelGene) in a 5% CO2 incubator at 37° C. Confluent C2C12 myoblasts were differentiated into myotubes by incubation with DMEM supplemented with the same antibiotics and 2% horse serum. Every 48 hours, the myotubes were fed with fresh DMEM containing 2% horse serum. Male C57BL/Ksj mice were maintained on a controlled lighting schedule, with a 12-h dark period. Twenty-week-old mice were used in all of the experiments in this study.
as §5
(§8) SiRNA oligomer targeting TRIM72 was designed from Dharmacon. Target sequence of TRIM72 is 5′-[…]-3′. The cell cultures were transfected with control RNAi and TRIM72 specific siRNA using transfection reagent (TransIT®-TKO, Mirus), which was prepared according manufacturer's instruction. Transfected cells were then transferred to media containing 2% horse serum at least for 48 h.
Western blotting and immunostaining were performed as described in Kim, K. B. et al. Proteomics 6, 2444-53 (2006). For immunoprecipitation, cells were lysed in buffer containing 20 mM Tris-HCl pH 7.4, 137 mM NaCl, 1 mM MgCl2, 1 mM CaCl2, 20 mM NaF, 10 mM Na4P2O7, 1% NP-40, 1 mM Na3VO4, 1 mM PMSF and protease inhibitor cocktail (Roche). The whole cell lysates (600 μg protein) were incubated with specific antibodies for 90 min and then with 50 μl of Protein A-sepharose or G-agarose bead (50%) slurry for 1 h. The immunoprecipitates were analyzed by Western blotting.

ERK1/2 = assay: IGF-1-induced ERK1/2 phosphorylation after TRIM72 overexpression or knockdown; settings: myoblasts (overexpression) / myotubes (knockdown), FIG. 7A
Excerpt: as §5, §6, §4

C2C12 myoblasts [6] = assay: Muscle differentiation of C2C12 myoblasts transfected with wild type or mutant TRIM72 genes; settings: genes expressed in C2C12 myoblasts, differentiation induced, FIG. 10B
Experimental: as §7
as §2, with “respectively. Alternatively, TRIM72 and TRIM72 C14A were generated by PCR reaction using the primers described in Table 1 and cloned into pHM6-HA vector, pCMV-Tag2B or pHM6 vector (Roche).” for “respectively.”

PI3K = assay: IGF-1-induced PI3K activation (PI(3)K activity of anti-p85 immunoprecipitates); settings: FIG. 7B
Excerpt: as §5
as §8, with “h. […]” for “h.”

IRS-1 [7] = assay: IRS-1 ubiquitination in 293 cells; settings: TRIM72, IRS-1 and ubiquitin co-expressed in 293 cells, MG132 treated, FIG. 11C
Experimental: as §3
293T cells are transfected with pCMV-HA-TRIM72 (1 μg) or pCMV-HA-TRIM72 C14A (1 μg) and pCMV-Flag-IRS-1 (3 μg) and His-ubiquitin (3 μg) using Polyfect (Qiagen). Twenty-four hours after transfection, cells were treated with MG132 (5 μM) for 12 h. Cell lysates were immunoprecipitated with anti-Flag for 2 h. The immunoprecipitates were analyzed by Western blotting against anti-His antibody.

For `O=c1cc(N2CCOCC2)oc2c(-c3ccccc3)cccc12` [LY294002], the “decrease of TRIM72 transcription in IGF-I induced muscle differentiation” value (TRIM72 promoter [1]; LY294002 10 μM) was 4 times.

`[Cl-].[Li+]` [LiCl] was tested, and the “MyoD-dependent TRIM72 transcription in myoblasts” value (TRIM72 promoter [2]) was “not affected” and the “change of TRIM72 transcription in IGF-I induced muscle differentiation” value (TRIM72 promoter [1]; rapamycin 100 nM, LiCl 5 mM) was “no change”.

`CC(C)C[C@@H](C=O)NC(=O)[C@H](CC(C)C)NC(=O)[C@H](CC(C)C)NC(=O)OCc1ccccc1` [MG132, reference compound] (Cbz-Leu-Leu-Leu-aldehyde) was tested, and the “expression of IRS-1” value (IRS-1 [3]) was “expressed normally”.

B1: TRIM72: TRIM72 protein (SEQ ID NO: 1 or 2) or its gene, overexpressed via adenoviral vector or plasmid; negative regulator of muscle differentiation (protein)
chain: MSAAPGLLHQELSCPLCLQLFDAPVTAECGHSFCRACLGRVAGEPAADGTVLCPCCQAPTRPQALSTNLQLARLVEGLAQVPQGHCEEHLDPLSIYCEQDRALVCGVCASLGSHRGHRLLPAAEAHARLKTQLPQQKLQLQEACMRKEKSVAVLEHQLVEVEETVRQFRGAVGEQLGKMRVFLAALEGSLDCEAERVRGEAGVALRRELGSLNSYLEQLRQMEKVLEEVADKPQTEFLMKYCLVTSRLQKILAESPPPARLDIQLPIISDDFKFQVWRKMFRALMPALEELTFDPSSAHPSLVVSSSGRRVECSEQKAPPAGEDPRQFDKAVAVVAHQQLSEGEHYWEVDVGDKPRWALGVIAAEAPRRGRLHAVPSQGLWLLGLREGKILEAHVEAKEPRALRSPERRPTRIGLYLSFGDGVLSFYDASDADALVPLFAFHERLPRPVYPFFDVCWHDKGKNAQPLLLVGPEGAEA
modifications: left off: small tags and cut ends
notes: negative regulator of muscle differentiation
In the case of B1, the “tyrosine phosphorylation of IGFR induced by IGF-I” value (IGFR) is reported as “not changed”, the “IGF-1-induced AKT phosphorylation” value (AKT) is reported as “inhibited” and the “expression of IRS-1” value (IRS-1 [3]) is reported as “decreased”. The “expression of M-Cadherin” value (M-Cadherin) was “decreased”, the “tyrosine phosphorylation of IRS-1” value (IRS-1 [4]) was “decreased” and the “molecular association of IRS-1 with PI3K after IGF-I stimulation” value (IRS-1 with PI3K) was “weakened”. The myogenesis (C2C12 myoblasts [5]; C2C12, FIG. 6A (H&E staining)) was “prevented”, the “myogenesis as determined by expression level of myogenesis marker proteins (myogenin, caveolin-3 and MyHC) and nucleus number per myotubes” value (C2C12 myoblasts [5]; C2C12, FIGS. 6C and 6D) was “completely prevented” and the “amount of MyHC” value (C2C12 myoblasts [5]; C2C12, MyHC staining, FIG. 6B) was “decreased”. For the same molecule, the fusion between cells (C2C12 myoblasts [5]; overexpression in myoblasts, FIG. 6) was “completely inhibits”, the “IGF-1-induced ERK1/2 phosphorylation” value (ERK1/2) was “not changed” and the muscle differentiation (C2C12 myoblasts [6]) was “inhibited”. For the same molecule, the “IGF-1-induced PI3K activation” value (PI3K) was “abrogated” and the IRS-1 ubiquitination (IRS-1 [7]) was “increased”.

B2: C14A TRIM72: TRIM72 mutant protein in which the 14th amino acid is substituted from cystine to alanine (protein, listed as Mus musculus)
chain: MSAAPGLLRQELSAPLCLQLFDAPVTAECGHSFCRACLIRVAGEPAADGTVACPCCQAPTRPQALSTNLQLSRLVEGLAQVPQGHCEEHLDPLSIYCEQDRTLVCGVCASLGSHRGHRLLPAAEAQARLKTQLPQQKMQLQEACMRKEKTVAVLEHQLVEVEETVRQFRGAVGEQLGKMRMFLAALESSLDREAERVRGDAGVALRRELSSLNSYLEQLRQMEKVLEEVADKPQTEFLMKFCLVTSRLQKILSESPPPARLDIQLPVISDDFKFQVWKKMFRALMPALEELTFDPSSAHPSLVVSSSGRRVECSDQKAPPAGEDTRQFDKAVAVVAQQLLSQGEHYWEVEVGDKPRWALGVMAADASRRGRLHAVPSQGLWLLGLRDGKILEAHVEAKEPRALRTPERPPARIGLYLSFADGVLAFYDASNPDVLTPIFSFHERLPGPVYPIFDVCWHDKGKNAQPLLLVGPEQEQA
modifications: or SEQ ID NO 2
notes: TRIM72 mutant protein in which the 14th amino acid is substituted from cystine to alanine
For B2, the muscle differentiation (C2C12 myoblasts [6]) was “enhanced” and the IRS-1 ubiquitination (IRS-1 [7]) was “completely inhibited”.
